Measurements reported in the supplement of paper PMC7877785.
± gives the uncertainty stated by the source.

Experiment: self-splicing fitness, log relative to wild type (ln ratio); higher = more splicing; Tetrahymena group I intron in knt gene, E. coli kanamycin selection, DiMSum; sequences stand for … in CUCUCU…GGAGGGAAAAGUUAUCAGGCAUGCACCUGGUAGCUAGUCUUUAAACCAAUAGAUUGCAUCGGUUUAAAAGGCAAGACCGUCAAAUUGCGGGAAAGGGGUCAACAGCCGUUCAGUACCAAGUCUCAGGGGAAACUUUGAGAUGGCCUUGCAAAGGGUAUGGUAAUAAGCUGACGGACAUGGUCCUAACCACGCAGCCAAGUCCUAAGUCAACAGAUCUUCUGUUGAUAUGGAUGCAGUUCACAGACUAAAUGUCGGUCGGGGAAGAUGUAUUCUUCUCAUAAGAUAUAGUCGGACCUCUCCUUAAUGGGAGCUAGCGGAUGAAGUGAUGCAACACUGGAGCCGCUGGGAACUAAUUUGUAUGCGAAAGUAUAUUGAUUAGUUUUGGAGUACUCGUGGUCG
Method in brief: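 The eight P1ex-region nucleotides of an intron in the knt kanamycin-resistance gene on pET-22b(+) were all randomised and the library put into E. coli BL21(DE3). Six replicate transformations were grown overnight at 37°C or 30°C on LB agar with or without 25 μg/mL kanamycin, together with 100 μg/mL carbenicillin, 50 μM IPTG and 0.2% rhamnose. Colonies were pooled and amplicon-sequenced on an Illumina HiSeq 2500. Fitness from DiMSum is the error-weighted combination of wild-type-normalised replicate fold changes, kanamycin over none.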

Row | Sequence | self-splicing fitness (ln) (30 °C) | self-splicing fitness (ln) (37 °C)
1 | UCAGAGCAAUAUUACGACCU | -2.87 ± 0.36 | –
2 | GGCGAGCAAUAUUACGUCGC | -2.72 ± 0.23 | –
3 | ACGCAGCAAUAUUACGCAGG | – | -1.05 ± 0.15
4 | CCGUAGCAAUAUUACGUACC | -4.4 ± 0.29 | -1.72 ± 0.34
5 | AAAAAGCAAUAUUACGCCCA | -0.382 ± 0.12 | -0.253 ± 0.16
6 | AUGUAGCAAUAUUACGAAUC | – | -2.91 ± 0.29
7 | GAUAAGCAAUAUUACGUGUG | -1.96 ± 0.079 | -0.282 ± 0.094
8 | AUCCAGCAAUAUUACGGCAC | -0.153 ± 0.085 | -0.31 ± 0.099
9 | UACAAGCAAUAUUACGCGCU | -1.39 ± 0.12 | -0.322 ± 0.11
10 | CCACAGCAAUAUUACGAUCU | -3.57 ± 0.16 | -2.43 ± 0.16
11 | UCACAGCAAUAUUACGAUGC | -3.33 ± 0.17 | -1.26 ± 0.13
12 | CACAAGCAAUAUUACGGAAU | -4.1 ± 0.21 | -2.28 ± 0.16
13 | AAGGAGCAAUAUUACGUGGU | -2.94 ± 0.2 | -1.36 ± 0.22
14 | UGGCAGCAAUAUUACGAGAA | -1.11 ± 0.32 | -1.62 ± 0.31
15 | GCGGAGCAAUAUUACGCCAG | -2.22 ± 0.42 | -2.26 ± 0.42
16 | AUCCAGCAAUAUUACGUUGU | -3.92 ± 0.12 | -2.09 ± 0.093
17 | AACCAGCAAUAUUACGAUUU | 0.157 ± 0.044 | -0.0356 ± 0.058
18 | UCACAGCAAUAUUACGAAAA | -3 ± 0.31 | -1.27 ± 0.17
19 | ACAUAGCAAUAUUACGAUCU | 0.0431 ± 0.089 | -0.196 ± 0.1
20 | AAAAAGCAAUAUUACGUAUC | -2.37 ± 0.089 | -1.5 ± 0.12
21 | UAACAGCAAUAUUACGAUAG | -1.21 ± 0.11 | -0.506 ± 0.12
22 | AUGAAGCAAUAUUACGCCUU | -1.9 ± 0.16 | -1.01 ± 0.14
23 | GCACAGCAAUAUUACGUGAA | 0.0235 ± 0.053 | -0.102 ± 0.068
24 | UAGUAGCAAUAUUACGUGAA | -3.8 ± 0.35 | -1.07 ± 0.18
25 | UUCAAGCAAUAUUACGGUGA | -0.763 ± 0.093 | 0.168 ± 0.092

Row | Sequence | self-splicing fitness (ln) (30 °C) | self-splicing fitness (ln) (37 °C)
26 | CGUAAGCAAUAUUACGAUGG | -1.37 ± 0.097 | -0.574 ± 0.13
27 | UUCCAGCAAUAUUACGCCGA | -0.126 ± 0.13 | 0.309 ± 0.16
28 | AGGUAGCAAUAUUACGCGGU | -3.312 ± 0.024 | -2.14 ± 0.037
29 | AUAAAGCAAUAUUACGGUAA | -1.21 ± 0.077 | -0.709 ± 0.09
30 | ACUAAGCAAUAUUACGAACC | -0.514 ± 0.16 | -1.24 ± 0.24
31 | AACGAGCAAUAUUACGAGGU | -3.56 ± 0.18 | -1.96 ± 0.16
32 | GGACAGCAAUAUUACGAAGG | -3.1 ± 0.24 | -2.38 ± 0.39
33 | AAGCAGCAAUAUUACGAAGG | -2.99 ± 0.16 | -3.01 ± 0.26
34 | AAACAGCAAUAUUACGACCC | -0.763 ± 0.11 | 0.302 ± 0.13
35 | AAUCAGCAAUAUUACGCAAU | -0.895 ± 0.067 | -0.0563 ± 0.093
36 | UCCCAGCAAUAUUACGGUCU | -1.83 ± 0.11 | -0.794 ± 0.11
37 | CAUGAGCAAUAUUACGGGAG | -1 ± 0.095 | -1.54 ± 0.13
38 | CCGAAGCAAUAUUACGGACG | -0.955 ± 0.11 | 0.515 ± 0.12
39 | ACUAAGCAAUAUUACGCAGC | -2.94 ± 0.36 | -0.621 ± 0.18
40 | CACAAGCAAUAUUACGUUAC | -4.46 ± 0.34 | -3.12 ± 0.36
41 | GCAGAGCAAUAUUACGCUUC | -3.9 ± 0.27 | -2.22 ± 0.2
42 | UAUAAGCAAUAUUACGCUUU | -4.08 ± 0.35 | -2.77 ± 0.3
43 | GACUAGCAAUAUUACGGCAA | -0.738 ± 0.08 | -0.302 ± 0.09
44 | UUCCAGCAAUAUUACGGCCG | -2.49 ± 0.29 | -0.492 ± 0.24
45 | GCCUAGCAAUAUUACGGUGU | -0.374 ± 0.054 | 0.0553 ± 0.064
46 | ACAUAGCAAUAUUACGUAGU | -2.54 ± 0.098 | -2.32 ± 0.12
47 | GAUGAGCAAUAUUACGUCAG | -3.78 ± 0.32 | -2.31 ± 0.26
48 | GAAAAGCAAUAUUACGAUUA | -0.531 ± 0.07 | -0.0202 ± 0.076
49 | ACGCAGCAAUAUUACGCAGU | -3.29 ± 0.16 | -2.78 ± 0.21
